Source: the Human Domainome abundance scans (Beltran et al. 2025)
± gives the uncertainty stated by the source.

B1: Kinesin-like protein KIF16B, residues 1213 to 1273; numbered along this chain, Q96L93 (parent)
chain: ETWTVFRRYSRFREMHKTLKLKYAELAALEFPPKKLFGNKDERVIAERRSHLEKYLRDFFS

Variants of: B1
Assay: abundance fitness (aPCA) (normalised: wild type 0, dead -1); higher = more abundant; growth selection in yeast, the domain comes from the species named
Settings: Homo sapiens

Variant | abundance fitness
ETWTVFRRYSRFREMHKTLKLKEAELAALEFPPKKLFGNKDERVIAERRSHLEKYLRDFFS [Y23E] | -0.897 ± 0.14
ETWTVFRRYSRFREMHKTLKLKMAELAALEFPPKKLFGNKDERVIAERRSHLEKYLRDFFS [Y23M] | 0.051 ± 0.14
ETWTVFRRYSRFREMHKTLKLSYAELAALEFPPKKLFGNKDERVIAERRSHLEKYLRDFFS [K22S] | -1.01 ± 0.22
ETWTVFRRYSRFREMHKTLKLVYAELAALEFPPKKLFGNKDERVIAERRSHLEKYLRDFFS [K22V] | 0.03 ± 0.059
ETWTVFRRYSRFREMHKTLKLMYAELAALEFPPKKLFGNKDERVIAERRSHLEKYLRDFFS [K22M] | -0.153 ± 0.1
ETWTVFRRYSRFREMHKTLKLLYAELAALEFPPKKLFGNKDERVIAERRSHLEKYLRDFFS [K22L] | 0.127 ± 0.055
ETWTVFRRYSRFREMHKTLKLYYAELAALEFPPKKLFGNKDERVIAERRSHLEKYLRDFFS [K22Y] | -0.354 ± 0.28
ETWTVFRRYSRFREMHKTLKLRYAELAALEFPPKKLFGNKDERVIAERRSHLEKYLRDFFS [K22R] | -0.354 ± 0.071
ETWTVFRRYSRFREMHKTLKLWYAELAALEFPPKKLFGNKDERVIAERRSHLEKYLRDFFS [K22W] | 0.28 ± 0.078
ETWTVFRRYSRFREMHKTLKLPYAELAALEFPPKKLFGNKDERVIAERRSHLEKYLRDFFS [K22P] | -0.921 ± 0.16
ETWTVFRRYSRFREMHKTLKLQYAELAALEFPPKKLFGNKDERVIAERRSHLEKYLRDFFS [K22Q] | -0.828 ± 0.16
ETWTVFRRYSRFREMHKTLKLTYAELAALEFPPKKLFGNKDERVIAERRSHLEKYLRDFFS [K22T] | -0.207 ± 0.12
ETWTVFRRYSRFREMHKTLKLKYAFLAALEFPPKKLFGNKDERVIAERRSHLEKYLRDFFS [E25F] | -0.224 ± 0.12
ETWTVFRRYSRFREMHKTLKLKYAYLAALEFPPKKLFGNKDERVIAERRSHLEKYLRDFFS [E25Y] | -0.542 ± 0.12
ETWTVFRRYSRFREMHKTLKLKYASLAALEFPPKKLFGNKDERVIAERRSHLEKYLRDFFS [E25S] | -0.238 ± 0.042
ETWTVFRRYSRFREMHKTLKLKYALLAALEFPPKKLFGNKDERVIAERRSHLEKYLRDFFS [E25L] | -0.465 ± 0.084
ETWTVFRRYSRFREMHKTLKLKYAVLAALEFPPKKLFGNKDERVIAERRSHLEKYLRDFFS [E25V] | -0.475 ± 0.063
ETWTVFRRYSRFREMHKTLKLKYARLAALEFPPKKLFGNKDERVIAERRSHLEKYLRDFFS [E25R] | -0.352 ± 0.06
ETWTVFRRYSRFREMHKTLKLKYAMLAALEFPPKKLFGNKDERVIAERRSHLEKYLRDFFS [E25M] | -0.409 ± 0.2
ETWTVFRRYSRFREMHKTLKLKYATLAALEFPPKKLFGNKDERVIAERRSHLEKYLRDFFS [E25T] | -0.468 ± 0.093
ETWTVFRRYSRFREMHKTLKLKYAKLAALEFPPKKLFGNKDERVIAERRSHLEKYLRDFFS [E25K] | -0.144 ± 0.069
ETWTVFRRYSRFREMHKTLKLKYAGLAALEFPPKKLFGNKDERVIAERRSHLEKYLRDFFS [E25G] | -0.384 ± 0.068

Variant | abundance fitness
ETWTVFRRYSRFREMHKTLKLKYAQLAALEFPPKKLFGNKDERVIAERRSHLEKYLRDFFS [E25Q] | 0.015 ± 0.12
ETWTVFRRYSRFREMHKTLKLKYAALAALEFPPKKLFGNKDERVIAERRSHLEKYLRDFFS [E25A] | -0.309 ± 0.092
ETWTVFRRYSRFREMHKTLKLKYAHLAALEFPPKKLFGNKDERVIAERRSHLEKYLRDFFS [E25H] | -0.749 ± 0.42
ETWTVFRRYSRFREMHKTLKLKYAILAALEFPPKKLFGNKDERVIAERRSHLEKYLRDFFS [E25I] | -0.292 ± 0.18
ETWTVFRRYSRFREMHKTLKLKYAEKAALEFPPKKLFGNKDERVIAERRSHLEKYLRDFFS [L26K] | -0.279 ± 0.16
ETWTVFRRYSRFREMHKTLKLKYAEGAALEFPPKKLFGNKDERVIAERRSHLEKYLRDFFS [L26G] | -0.667 ± 0.082
ETWTVFRRYSRFREMHKTLKLKYAEQAALEFPPKKLFGNKDERVIAERRSHLEKYLRDFFS [L26Q] | -1.04 ± 0.21
ETWTVFRRYSRFREMHKTLKLKYAESAALEFPPKKLFGNKDERVIAERRSHLEKYLRDFFS [L26S] | -0.77 ± 0.14
ETWTVFRRYSRFREMHKTLKLKYAECAALEFPPKKLFGNKDERVIAERRSHLEKYLRDFFS [L26C] | -0.047 ± 0.19
ETWTVFRRYSRFREMHKTLKLKYAEFAALEFPPKKLFGNKDERVIAERRSHLEKYLRDFFS [L26F] | 0.158 ± 0.1
ETWTVFRRYSRFREMHKTLKLKYAEVAALEFPPKKLFGNKDERVIAERRSHLEKYLRDFFS [L26V] | -0.364 ± 0.079
ETWTVFRRYSRFREMHKTLKLKYAEEAALEFPPKKLFGNKDERVIAERRSHLEKYLRDFFS [L26E] | -0.819 ± 0.15
ETWTVFRRYSRFREMHKTLKLKYAEYAALEFPPKKLFGNKDERVIAERRSHLEKYLRDFFS [L26Y] | -0.306 ± 0.34
ETWTVFRRYSRFREMHKTLKLKYAEHAALEFPPKKLFGNKDERVIAERRSHLEKYLRDFFS [L26H] | -0.946 ± 0.17
ETWTVFRRYSRFREMHKTLKLKYAEAAALEFPPKKLFGNKDERVIAERRSHLEKYLRDFFS [L26A] | -0.661 ± 0.14
ETWTVFRRYSRFREMHKTLKLKYAENAALEFPPKKLFGNKDERVIAERRSHLEKYLRDFFS [L26N] | -0.694 ± 0.19
ETWTVFRRYSRFREMHKTLKLKYAERAALEFPPKKLFGNKDERVIAERRSHLEKYLRDFFS [L26R] | -0.872 ± 0.11
ETWTVFRRYSRFREMHKTLKLKYAETAALEFPPKKLFGNKDERVIAERRSHLEKYLRDFFS [L26T] | -0.851 ± 0.13
ETWTVFRRYSRFREMHKTLKLKYAEMAALEFPPKKLFGNKDERVIAERRSHLEKYLRDFFS [L26M] | -0.298 ± 0.085
ETWTVFRRYSRFREMHKTLKLKYAEDAALEFPPKKLFGNKDERVIAERRSHLEKYLRDFFS [L26D] | -0.573 ± 0.19
ETWTVFRRYSRFREMHKTLKLKYAEPAALEFPPKKLFGNKDERVIAERRSHLEKYLRDFFS [L26P] | -0.652 ± 0.14
ETWTVFRRYSRFREMHKTLKLKYAEWAALEFPPKKLFGNKDERVIAERRSHLEKYLRDFFS [L26W] | -0.033 ± 0.067
